{"source": "paper PMC4526632", "target": "T1, recombinant mouse N-cadherin-Fc chimera (N-cadherin extracellular domain-Fc fusion protein) (mouse) (UniProt P15116)", "T1 sequence": "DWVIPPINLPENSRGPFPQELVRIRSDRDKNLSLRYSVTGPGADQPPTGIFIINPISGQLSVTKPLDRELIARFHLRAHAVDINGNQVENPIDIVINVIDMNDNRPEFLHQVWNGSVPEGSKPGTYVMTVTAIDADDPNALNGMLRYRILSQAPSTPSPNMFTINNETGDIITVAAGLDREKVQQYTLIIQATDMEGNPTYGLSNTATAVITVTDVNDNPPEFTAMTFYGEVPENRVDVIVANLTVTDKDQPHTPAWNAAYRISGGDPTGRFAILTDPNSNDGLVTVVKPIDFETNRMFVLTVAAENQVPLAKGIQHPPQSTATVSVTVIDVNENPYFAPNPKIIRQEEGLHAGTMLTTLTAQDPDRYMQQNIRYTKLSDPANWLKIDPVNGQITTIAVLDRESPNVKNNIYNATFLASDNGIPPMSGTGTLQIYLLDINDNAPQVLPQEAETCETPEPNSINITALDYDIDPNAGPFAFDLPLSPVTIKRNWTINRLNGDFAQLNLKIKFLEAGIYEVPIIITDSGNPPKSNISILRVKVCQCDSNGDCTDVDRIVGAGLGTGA", "data": [{"substance": "cell surface N-cadherin of ESC/iPSC-derived neural progenitor cells (from UniProt P15116 160-906) (natural protein)", "values": [{"measurement": "Nanog-GFP negative cells by flow cytometry after plating dissociated iPSC-derived neurospheres on N-cad-Fc for 48 h (30% of cells on gelatin expressed Nanog)", "value": "> 97", "unit": "%"}]}]}
